In the Human Domainome abundance scans (Beltran et al. 2025):
± gives the uncertainty stated by the source.

B1: POU domain, class 2, transcription factor 1, residues 285 to 354; numbered along this chain, P14859 (parent)
chain: LEELEQFAKTFKQRRIKLGFTQGDVGLAMGKLYGNDFSQTTISRFEALNLSFKNMCKLKPLLEKWLNDAE

Variants of: B1
Assay: abundance fitness (aPCA) (normalised: wild type 0, dead -1); higher = more abundant; growth selection in yeast, the domain comes from the species named
Conditions: Homo sapiens

Going from LEELEQFAKTFKQRRIKLGFTLGDVGLAMGKLYGNDFSQTTISRFEALNLSFKNMCKLKPLLEKWLNDAE [Q22L] to LEELEQFAKTFKQRRIKLGFTIGDVGLAMGKLYGNDFSQTTISRFEALNLSFKNMCKLKPLLEKWLNDAE [Q22I], the abundance fitness falls from -0.001 ± 0.024 to -0.076 ± 0.045.

LEELEQFAKTFKQRRIKLGFTNGDVGLAMGKLYGNDFSQTTISRFEALNLSFKNMCKLKPLLEKWLNDAE [Q22N] and LEELEQFAKTFKQRRIKLGFTFGDVGLAMGKLYGNDFSQTTISRFEALNLSFKNMCKLKPLLEKWLNDAE [Q22F] are within error of each other in abundance fitness: -0.119 ± 0.075 for the first, -0.129 ± 0.038 for the second.

LEELEQFAKTFKQRRIKLGFTHGDVGLAMGKLYGNDFSQTTISRFEALNLSFKNMCKLKPLLEKWLNDAE [Q22H] and LEELEQFAKTFKQRRIKLGFTGGDVGLAMGKLYGNDFSQTTISRFEALNLSFKNMCKLKPLLEKWLNDAE [Q22G] are within error of each other in abundance fitness: -0.118 ± 0.063 for the first, -0.099 ± 0.022 for the second.

LEELEQFAKTFKQRRIKLGFTAGDVGLAMGKLYGNDFSQTTISRFEALNLSFKNMCKLKPLLEKWLNDAE [Q22A] and LEELEQFAKTFKQRRIKLGFTEGDVGLAMGKLYGNDFSQTTISRFEALNLSFKNMCKLKPLLEKWLNDAE [Q22E] are within error of each other in abundance fitness: -0.014 ± 0.024 for the first, -0.024 ± 0.043 for the second.

LEELEQFAKTFKQRRIKLGFTRGDVGLAMGKLYGNDFSQTTISRFEALNLSFKNMCKLKPLLEKWLNDAE [Q22R] and LEELEQFAKTFKQRRIKLGFTSGDVGLAMGKLYGNDFSQTTISRFEALNLSFKNMCKLKPLLEKWLNDAE [Q22S] are within error of each other in abundance fitness: -0.011 ± 0.024 for the first, -0.005 ± 0.028 for the second.

Going from LEELEQFAKTFKQRRIKLGFTKGDVGLAMGKLYGNDFSQTTISRFEALNLSFKNMCKLKPLLEKWLNDAE [Q22K] to LEELEQFAKTFKQRRIKLGFTWGDVGLAMGKLYGNDFSQTTISRFEALNLSFKNMCKLKPLLEKWLNDAE [Q22W], the abundance fitness falls from 0.048 ± 0.086 to -0.072 ± 0.032.

LEELEQFAKTFKQRRIKLGFTCGDVGLAMGKLYGNDFSQTTISRFEALNLSFKNMCKLKPLLEKWLNDAE [Q22C] and LEELEQFAKTFKQRRIKLGFTTGDVGLAMGKLYGNDFSQTTISRFEALNLSFKNMCKLKPLLEKWLNDAE [Q22T] are within error of each other in abundance fitness: 0.031 ± 0.025 for the first, -0.011 ± 0.041 for the second.

LEELEQFAKTFKQRRIKLGFTDGDVGLAMGKLYGNDFSQTTISRFEALNLSFKNMCKLKPLLEKWLNDAE [Q22D] and LEELEQFAKTFKQRRIKLGFTYGDVGLAMGKLYGNDFSQTTISRFEALNLSFKNMCKLKPLLEKWLNDAE [Q22Y] are within error of each other in abundance fitness: -0.035 ± 0.054 for the first, -0.029 ± 0.06 for the second.

First: LEELEQFAKTFKQRRIKLGFTMGDVGLAMGKLYGNDFSQTTISRFEALNLSFKNMCKLKPLLEKWLNDAE [Q22M]
Second: LEELEQFAKTFKQRRIKLGFTVGDVGLAMGKLYGNDFSQTTISRFEALNLSFKNMCKLKPLLEKWLNDAE [Q22V]
The abundance fitness of the first is lower: -0.134 ± 0.051 for the first, 0 ± 0.022 for the second.

Compared with LEELEQFAKTFKQRRIKLGFTPGDVGLAMGKLYGNDFSQTTISRFEALNLSFKNMCKLKPLLEKWLNDAE [Q22P], LEELEQFAKTFKQRRIKLGFPQGDVGLAMGKLYGNDFSQTTISRFEALNLSFKNMCKLKPLLEKWLNDAE [T21P] is lower in abundance fitness: 0.001 ± 0.031 for the first, -0.423 ± 0.035 for the second.

LEELEQFAKTFKQRRIKLGFQQGDVGLAMGKLYGNDFSQTTISRFEALNLSFKNMCKLKPLLEKWLNDAE [T21Q] and LEELEQFAKTFKQRRIKLGFGQGDVGLAMGKLYGNDFSQTTISRFEALNLSFKNMCKLKPLLEKWLNDAE [T21G] are within error of each other in abundance fitness: -0.131 ± 0.031 for the first, -0.113 ± 0.035 for the second.

Compared with LEELEQFAKTFKQRRIKLGFVQGDVGLAMGKLYGNDFSQTTISRFEALNLSFKNMCKLKPLLEKWLNDAE [T21V], LEELEQFAKTFKQRRIKLGFRQGDVGLAMGKLYGNDFSQTTISRFEALNLSFKNMCKLKPLLEKWLNDAE [T21R] is higher in abundance fitness: -0.482 ± 0.04 for the first, -0.198 ± 0.035 for the second.

First: LEELEQFAKTFKQRRIKLGFHQGDVGLAMGKLYGNDFSQTTISRFEALNLSFKNMCKLKPLLEKWLNDAE [T21H]
Second: LEELEQFAKTFKQRRIKLGFIQGDVGLAMGKLYGNDFSQTTISRFEALNLSFKNMCKLKPLLEKWLNDAE [T21I]
The abundance fitness of the first is higher: -0.191 ± 0.035 for the first, -0.598 ± 0.055 for the second.

LEELEQFAKTFKQRRIKLGFEQGDVGLAMGKLYGNDFSQTTISRFEALNLSFKNMCKLKPLLEKWLNDAE [T21E] and LEELEQFAKTFKQRRIKLGFDQGDVGLAMGKLYGNDFSQTTISRFEALNLSFKNMCKLKPLLEKWLNDAE [T21D] are the same in abundance fitness: -0.191 ± 0.046 for the first, -0.191 ± 0.088 for the second.

LEELEQFAKTFKQRRIKLGFWQGDVGLAMGKLYGNDFSQTTISRFEALNLSFKNMCKLKPLLEKWLNDAE [T21W] and LEELEQFAKTFKQRRIKLGFFQGDVGLAMGKLYGNDFSQTTISRFEALNLSFKNMCKLKPLLEKWLNDAE [T21F] are within error of each other in abundance fitness: -0.753 ± 0.07 for the first, -0.693 ± 0.045 for the second.

Compared with LEELEQFAKTFKQRRIKLGFAQGDVGLAMGKLYGNDFSQTTISRFEALNLSFKNMCKLKPLLEKWLNDAE [T21A], LEELEQFAKTFKQRRIKLGFKQGDVGLAMGKLYGNDFSQTTISRFEALNLSFKNMCKLKPLLEKWLNDAE [T21K] is higher in abundance fitness: -0.158 ± 0.04 for the first, -0.065 ± 0.033 for the second.

Going from LEELEQFAKTFKQRRIKLGFLQGDVGLAMGKLYGNDFSQTTISRFEALNLSFKNMCKLKPLLEKWLNDAE [T21L] to LEELEQFAKTFKQRRIKLGFNQGDVGLAMGKLYGNDFSQTTISRFEALNLSFKNMCKLKPLLEKWLNDAE [T21N], the abundance fitness rises from -0.284 ± 0.019 to -0.029 ± 0.055.

LEELEQFAKTFKQRRIKLGVTQGDVGLAMGKLYGNDFSQTTISRFEALNLSFKNMCKLKPLLEKWLNDAE [F20V] and LEELEQFAKTFKQRRIKLGQTQGDVGLAMGKLYGNDFSQTTISRFEALNLSFKNMCKLKPLLEKWLNDAE [F20Q] are within error of each other in abundance fitness: -0.024 ± 0.039 for the first, -0.038 ± 0.031 for the second.

LEELEQFAKTFKQRRIKLGSTQGDVGLAMGKLYGNDFSQTTISRFEALNLSFKNMCKLKPLLEKWLNDAE [F20S] and LEELEQFAKTFKQRRIKLGNTQGDVGLAMGKLYGNDFSQTTISRFEALNLSFKNMCKLKPLLEKWLNDAE [F20N] are the same in abundance fitness: -0.197 ± 0.036 for the first, -0.197 ± 0.045 for the second.
